Literature values, collected in article PMC12799613.
pKd: −log10 of the molar value.

What was measured:
[1] = target: TRPM3 peptide (Mus musculus) (UniProt J9SQF3)
[2] = target: GIRK2 (Kir3.2), first Gβγ binding (Mus musculus) (UniProt P48542)
[3] = target: GIRK2 (Kir3.2), fourth Gβγ binding (Mus musculus) (UniProt P48542)
TRPC5 (Homo sapiens) = TRPC5 (Homo sapiens) (UniProt Q9UL62)
Chain of TRPC5 (Homo sapiens) (Q9UL62 whole entry): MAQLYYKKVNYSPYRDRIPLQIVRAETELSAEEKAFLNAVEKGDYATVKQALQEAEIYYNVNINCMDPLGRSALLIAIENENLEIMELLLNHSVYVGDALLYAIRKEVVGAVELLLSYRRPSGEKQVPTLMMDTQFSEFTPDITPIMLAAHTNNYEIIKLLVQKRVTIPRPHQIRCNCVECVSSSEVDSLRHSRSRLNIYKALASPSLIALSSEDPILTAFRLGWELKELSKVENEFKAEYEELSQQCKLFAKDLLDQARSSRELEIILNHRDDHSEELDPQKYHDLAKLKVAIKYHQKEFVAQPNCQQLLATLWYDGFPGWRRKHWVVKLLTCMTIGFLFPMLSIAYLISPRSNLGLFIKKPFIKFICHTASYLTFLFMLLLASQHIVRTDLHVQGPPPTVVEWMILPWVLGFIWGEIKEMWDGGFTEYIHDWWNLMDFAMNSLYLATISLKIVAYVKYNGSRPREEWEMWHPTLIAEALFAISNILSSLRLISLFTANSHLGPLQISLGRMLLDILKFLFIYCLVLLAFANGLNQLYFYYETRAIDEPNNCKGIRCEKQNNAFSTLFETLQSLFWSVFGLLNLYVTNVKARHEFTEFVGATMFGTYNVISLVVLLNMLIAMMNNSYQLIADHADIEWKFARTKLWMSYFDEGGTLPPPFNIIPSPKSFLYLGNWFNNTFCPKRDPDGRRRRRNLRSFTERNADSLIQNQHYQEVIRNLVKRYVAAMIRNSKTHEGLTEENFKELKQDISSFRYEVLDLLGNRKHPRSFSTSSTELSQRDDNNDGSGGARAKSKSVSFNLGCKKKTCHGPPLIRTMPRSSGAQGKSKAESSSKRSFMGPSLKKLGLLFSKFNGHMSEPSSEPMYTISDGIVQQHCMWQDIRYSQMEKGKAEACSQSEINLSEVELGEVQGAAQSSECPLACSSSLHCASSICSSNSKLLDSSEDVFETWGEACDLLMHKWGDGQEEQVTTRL

Chain of Gβ1γ2 (P62873 2-340): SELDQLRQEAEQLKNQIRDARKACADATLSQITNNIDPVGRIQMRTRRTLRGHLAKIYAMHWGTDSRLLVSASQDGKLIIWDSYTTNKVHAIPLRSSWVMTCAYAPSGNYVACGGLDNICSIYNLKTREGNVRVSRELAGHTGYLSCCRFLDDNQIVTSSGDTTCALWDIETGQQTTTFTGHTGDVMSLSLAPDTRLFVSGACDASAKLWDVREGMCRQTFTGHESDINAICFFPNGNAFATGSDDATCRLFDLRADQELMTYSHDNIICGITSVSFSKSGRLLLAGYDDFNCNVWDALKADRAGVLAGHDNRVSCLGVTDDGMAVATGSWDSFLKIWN
Chain of Gβ1γ2 (P59768 2-68, further chain): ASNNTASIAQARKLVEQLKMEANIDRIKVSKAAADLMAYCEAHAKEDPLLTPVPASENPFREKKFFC
Chain of GIRK2 (Kir3.2), first Gβγ binding (Mus musculus) (P48542 whole entry): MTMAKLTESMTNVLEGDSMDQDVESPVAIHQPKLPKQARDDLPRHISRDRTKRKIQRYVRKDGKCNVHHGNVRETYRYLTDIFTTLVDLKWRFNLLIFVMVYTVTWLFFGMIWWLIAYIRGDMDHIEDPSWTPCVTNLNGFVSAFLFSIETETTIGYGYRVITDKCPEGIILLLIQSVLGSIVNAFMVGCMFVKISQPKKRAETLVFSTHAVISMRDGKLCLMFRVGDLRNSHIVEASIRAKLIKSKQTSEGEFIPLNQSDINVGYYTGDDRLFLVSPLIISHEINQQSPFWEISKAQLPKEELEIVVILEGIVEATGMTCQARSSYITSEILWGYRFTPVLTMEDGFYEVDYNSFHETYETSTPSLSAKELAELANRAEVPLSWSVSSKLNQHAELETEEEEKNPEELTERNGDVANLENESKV
Chain of GIRK2 (Kir3.2), fourth Gβγ binding (Mus musculus) (P48542 whole entry): as above
Chain of TRPM3 peptide (Mus musculus) (J9SQF3 whole entry): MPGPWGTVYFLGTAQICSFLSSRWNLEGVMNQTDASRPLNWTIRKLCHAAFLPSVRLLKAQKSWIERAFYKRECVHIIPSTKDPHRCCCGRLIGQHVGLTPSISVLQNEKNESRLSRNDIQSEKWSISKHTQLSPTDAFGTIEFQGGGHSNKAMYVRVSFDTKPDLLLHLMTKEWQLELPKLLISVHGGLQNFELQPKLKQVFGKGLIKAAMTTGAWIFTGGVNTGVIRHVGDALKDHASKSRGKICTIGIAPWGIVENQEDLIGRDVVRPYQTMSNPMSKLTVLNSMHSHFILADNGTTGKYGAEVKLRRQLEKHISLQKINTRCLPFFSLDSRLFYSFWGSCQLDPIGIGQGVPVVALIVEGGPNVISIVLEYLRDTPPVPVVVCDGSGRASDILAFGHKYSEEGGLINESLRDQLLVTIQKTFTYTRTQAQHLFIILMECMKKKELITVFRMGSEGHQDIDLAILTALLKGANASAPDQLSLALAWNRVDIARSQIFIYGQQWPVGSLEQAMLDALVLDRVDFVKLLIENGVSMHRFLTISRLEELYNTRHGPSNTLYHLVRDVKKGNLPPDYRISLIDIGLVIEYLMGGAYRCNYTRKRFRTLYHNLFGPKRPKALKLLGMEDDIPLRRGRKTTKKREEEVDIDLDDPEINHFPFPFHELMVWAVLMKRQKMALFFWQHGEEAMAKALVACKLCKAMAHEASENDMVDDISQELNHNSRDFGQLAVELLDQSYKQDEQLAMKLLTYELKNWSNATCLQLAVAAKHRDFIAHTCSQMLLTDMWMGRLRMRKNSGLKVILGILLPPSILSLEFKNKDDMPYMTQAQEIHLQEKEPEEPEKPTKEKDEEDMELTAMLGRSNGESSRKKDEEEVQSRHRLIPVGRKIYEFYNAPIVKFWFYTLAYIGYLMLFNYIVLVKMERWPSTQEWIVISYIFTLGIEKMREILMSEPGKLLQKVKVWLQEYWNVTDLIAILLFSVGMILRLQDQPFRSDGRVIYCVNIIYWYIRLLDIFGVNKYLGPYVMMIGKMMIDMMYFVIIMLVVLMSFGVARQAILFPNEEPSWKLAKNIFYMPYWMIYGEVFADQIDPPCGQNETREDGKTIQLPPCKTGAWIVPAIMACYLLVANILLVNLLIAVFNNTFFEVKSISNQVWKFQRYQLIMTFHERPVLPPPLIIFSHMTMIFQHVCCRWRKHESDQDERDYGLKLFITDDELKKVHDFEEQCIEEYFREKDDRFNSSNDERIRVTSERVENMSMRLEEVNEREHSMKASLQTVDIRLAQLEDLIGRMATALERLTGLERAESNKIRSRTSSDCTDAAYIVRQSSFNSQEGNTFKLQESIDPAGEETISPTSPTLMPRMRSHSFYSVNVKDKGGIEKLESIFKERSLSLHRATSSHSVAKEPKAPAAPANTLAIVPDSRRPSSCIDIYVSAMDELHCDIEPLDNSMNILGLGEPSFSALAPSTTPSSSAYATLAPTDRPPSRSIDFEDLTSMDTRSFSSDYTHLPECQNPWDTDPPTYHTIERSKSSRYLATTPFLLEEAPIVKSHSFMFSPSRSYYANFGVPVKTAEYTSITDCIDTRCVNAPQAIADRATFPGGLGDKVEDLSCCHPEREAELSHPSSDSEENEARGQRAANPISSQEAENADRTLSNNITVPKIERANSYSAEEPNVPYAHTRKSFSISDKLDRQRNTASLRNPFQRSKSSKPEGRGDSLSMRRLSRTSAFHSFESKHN
Chain of Gαi3 (P08754 2-354): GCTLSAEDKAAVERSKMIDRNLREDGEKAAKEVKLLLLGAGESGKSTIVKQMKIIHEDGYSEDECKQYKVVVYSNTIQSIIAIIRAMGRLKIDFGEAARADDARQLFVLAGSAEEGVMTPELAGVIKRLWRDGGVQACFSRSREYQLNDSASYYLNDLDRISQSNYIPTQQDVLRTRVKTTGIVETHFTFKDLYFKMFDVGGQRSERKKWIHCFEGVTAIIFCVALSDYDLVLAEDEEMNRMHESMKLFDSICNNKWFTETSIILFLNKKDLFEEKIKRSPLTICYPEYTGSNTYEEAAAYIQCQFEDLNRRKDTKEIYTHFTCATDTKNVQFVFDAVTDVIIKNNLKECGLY

| pKd [1] | pKd [2] | pKd [3] | pKd (TRPC5 (Homo sapiens)) | Substance |
| --- | --- | --- | --- | --- |
| 4.25 | 2.72 | 4.30 | – | Gβ1γ2 (from UniProt P62873) |
| – | – | – | 6.04 | Gαi3 (from UniProt P08754) |
